Each block holds one molecule with its values, some of them ahead of it.
Experiments:
ErbB2 = assay: Discrimination power from published data: ErbB2 CARs; settings: n 4, ref Liu 2015
Description: (§1) The broad method was to obtain a measure of ligand potency from each study. […] If not explicitly provided, we estimated ligand potency as PX , which was defined by the concentration of ligand that produced X response. To do this, we drew a horizontal line at X on a provided dose-response graph and estimated the ligand concentration where the data intercepted the horizontal line. The disadvantage with this method is that ligand potency was estimated based on the single representative graph provided in the study.
(§2) Each study often contained or cited a study that contained estimates of KD or koff for the specific TCR/pMHC interactions used in the study. We only included studies where monomeric SPR binding data was available to avoid multimeric binding parameters (e.g. when using tetramers). However, when analysing discrimination by other non-TCR receptors, we included binding data from various methods (e.g. SPR, radio labelled ligands) provided they were monomeric measurements. The use of SPR is important for weak interactions, such as TCR/pMHC, but various methods are available for higher-affinity interactions.
(§3) The plot of potency over KD or k off was fit using linear regression on log-transformed axes. We reported the slope of the fit (i.e. the discrimination power, α), the goodness-of-fit measure ( R^2 ), and the p-value for the null hypothesis that the slope is zero (i.e. α=0 ). […]

IFNAR1 and IFNAR2 = assay: Discrimination power from published data: type I IFN receptor; settings: n 13, ref Thomas C. 2011
Description: as §1, §2, §3

M3 muscarinic receptor = assay: Discrimination power from published data: M3 receptor; settings: n 7, ref Sykes 2009
Description: as §1, §2, §3

c-Kit = assay: Discrimination power from published data: c-Kit; settings: n 4, ref Ho 2017
Description: as §1, §2, §3

[1] = tested on: IL-2 receptor subunit β (IL-2Rb); assay: Discrimination power from published data: IL-2 receptor; settings: n 4, ref Levin 2012
Description: as §1, §2, §3

CXC chemokine receptor 3 = assay: Discrimination power from published data: CXCR3; settings: ref Heise 2005
Description: as §1, §2
(§4) The plot of potency over KD or k off was fit using linear regression on log-transformed axes. We reported the slope of the fit (i.e. the discrimination power, α), the goodness-of-fit measure ( R^2 ), and the p-value for the null hypothesis that the slope is zero (i.e. α=0 ). We defined significance using the threshold of p=0.05.
Therefore, ligand affinity may not correlate to functional potency. Instead, we focused on identifying studies that used ligands that were confirmed to bind to the same interface with different affinities. As an example, Sykes et al. used seven agonists to the muscarinic M3 receptor and confirmed they all bound to the same interface using a binding competition assay ([Sykes et al., 2009]). Using titrations of each ligand, they examined the binding of GTPγS to CHO-M3 membrane as a measure of response (Figure 6C, left). […]

IL-13Ra1 = assay: Discrimination power from published data: IL-13 receptor; settings: ref Moraga 2015
Description: as §1, §2, §4
Cytokine receptors transduce signals by ligand-induced dimerisation of receptor subunits. We identified five studies that produced ligands with mutations that modified binding to either one or both receptor subunits and either reported potency or provided dose-response curves from which potency can be extracted ([Levin et al., 2012]; [Moraga et al., 2015]; [Thomas et al., 2011a]; [Mendoza et al., 2017]; [Martinez-Fabregas et al., 2019]). […] By measuring cellular responses, such as upregulation of CD86 on monocytes, dose-response curves were generated for each IL-13 variant, allowing us to determine ligand potency. We observed a significant correlation between potency and KD (Figure 6A). We repeated the analysis for each study (Figure 6—source data 1 ID 1–13). In studies that included ligands with mutations to both receptor interfaces, we plotted potency over the product of the dissociation constants to each interface since this serves as an estimate of the overall affinity (i.e. KD1×KD2 ).

gp130 = assay: Discrimination power from published data: IL-6 receptor; settings: ns, ref Martinez-Fabregas 2019
Description: as §1, §2, §3

Power (discrimination power) ([1]; ID 1, output CD25 – pSTAT5 (NK cells)): 0.546
Power (discrimination power) ([1]; ID 2, output CD25 – %pSTAT5 (T cells)): 0.743
B1: IL-2R beta (protein, UniProt P14784 27-551, looked up)
Interleukin-2 receptor …: AVNGTSQFTCFYNSRANISCVWSQDGALQDTSCQVHAWPDRRRWNQTCELLPVSQASWACNLILGAPDSQKLTTVDIVTLRVLCREGVRWRVMAIQDFKPFENLRLMAPISLQVVHVETHRCNISWEISQASHYFERHLEFEARTLSPGHTWEEAPLLTLKQKQEWICLETLTPDTQYEFQVRVKPLQGEFTTWSPWSQPLAFRTKPAALGKDTIPWLGHLLVGLSGAFGFIILVYLLINCRNTGPWLKKVLKCNTPDPSKFFSQLSSEHGGDVQKWLSSPFPSSSFSPGGLAPEISPLEVLERDKVTQLLLQQDKVPEPASLSSNHSLTSCFTNQGYFFFHLPDALEIEACQVYFTYDPYSEEDPDEGVAGAPTGSSPQPLQPLSGEDDAYCTFPSRDDLLLFSPSLLGGPSPPSTAPGGSGAGEERMPPSLQERVPRDWDPQPLGPPTPGVPDLVDFQPPPELVLREAGEEVPDAGPREGVSFPWSRPPGQGEFRALNARLPLNTDAYLSLQELQGQDPTHLV

Power (discrimination power) (IL-13Ra1; ID 3, output pSTAT6, n 9): 0.471
Power (discrimination power) (IL-13Ra1; ID 6, output CD205, n 9): 0.421
B3: IL-13Rα1 (protein, UniProt P78552 22-427, looked up)
Interleukin-13 receptor …: GGGGAAPTETQPPVTNLSVSVENLCTVIWTWNPPEGASSNCSLWYFSHFGDKQDKKIAPETRRSIEVPLNERICLQVGSQCSTNESEKPSILVEKCISPPEGDPESAVTELQCIWHNLSYMKCSWLPGRNTSPDTNYTLYYWHRSLEKIHQCENIFREGQYFGCSFDLTKVKDSSFEQHSVQIMVKDNAGKIKPSFNIVPLTSRVKPDPPHIKNLSFHNDDLYVQWENPQNFISRCLFYEVEVNNSQTETHNVFYVQEAKCENPEFERNVENTSCFMVPGVLPDTLNTVRIRVKTNKLCYEDDKLWSNWSQEMSIGKKRNSTLYITMLLIVPVIVAGAIIVLLLYLKRLKIIIFPPIPDPGKIFKEMFGDQNDDTLHWKKYDIYEKQTKEETDSVVLIENLKKASQ

Power (discrimination power) (gp130; ID 12, output pSTAT1, n 3): 0.5438
Power (discrimination power) (gp130; ID 13, output pSTAT3, n 4): 0.5194
B4: gp130 (and IL6R alpha) (protein, UniProt P40189 23-918; P08887 20-468, looked up)
Interleukin-6 receptor … 1: ELLDPCGYISPESPVVQLHSNFTAVCVLKEKCMDYFHVNANYIVWKTNHFTIPKEQYTIINRTASSVTFTDIASLNIQLTCNILTFGQLEQNVYGITIISGLPPEKPKNLSCIVNEGKKMRCEWDGGRETHLETNFTLKSEWATHKFADCKAKRDTPTSCTVDYSTVYFVNIEVWVEAENALGKVTSDHINFDPVYKVKPNPPHNLSVINSEELSSILKLTWTNPSIKSVIILKYNIQYRTKDASTWSQIPPEDTASTRSSFTVQDLKPFTEYVFRIRCMKEDGKGYWSDWSEEASGITYEDRPSKAPSFWYKIDPSHTQGYRTVQLVWKTLPPFEANGKILDYEVTLTRWKSHLQNYTVNATKLTVNLTNDRYLATLTVRNLVGKSDAAVLTIPACDFQATHPVMDLKAFPKDNMLWVEWTTPRESVKKYILEWCVLSDKAPCITDWQQEDGTVHRTYLRGNLAESKCYLITVTPVYADGPGSPESIKAYLKQAPPSKGPTVRTKKVGKNEAVLEWDQLPVDVQNGFIRNYTIFYRTIIGNETAVNVDSSHTEYTLSSLTSDTLYMVRMAAYTDEGGKDGPEFTFTTPKFAQGEIEAIVVPVCLAFLLTTLLGVLFCFNKRDLIKKHIWPNVPDPSKSHIAQWSPHTPPRHNFNSKDQMYSDGNFTDVSVVEIEANDKKPFPEDLKSLDLFKKEKINTEGHSSGIGGSSCMSSSRPSISSSDENESSQNTSSTVQYSTVVHSGYRHQVPSVQVFSRSESTQPLLDSEERPEDLQLVDHVDGGDGILPRQQYFKQNCSQHESSPDISHFERSKQVSSVNEEDFVRLKQQISDHISQSCGSGQMKMFQEVSAADAFGPGTEGQVERFETVGMEAATDEGMPKSYLPQTVRQGGYMPQ
Interleukin-6 receptor … 2: LAPRRCPAQEVARGVLTSLPGDSVTLTCPGVEPEDNATVHWVLRKPAAGSHPSRWAGMGRRLLLRSVQLHDSGNYSCYRAGRPAGTVHLLVDVPPEEPQLSCFRKSPLSNVVCEWGPRSTPSLTTKAVLLVRKFQNSPAEDFQEPCQYSQESQKFSCQLAVPEGDSSFYIVSMCVASSVGSKFSKTQTFQGCGILQPDPPANITVTAVARNPRWLSVTWQDPHSWNSSFYRLRFELRYRAERSKTFTTWMVKDLQHHCVIHDAWSGLRHVVQLRAQEEFGQGEWSEWSPEAMGTPWTESRSPPAENEVSTPMQALTTNKDDDNILFRDSANATSLPVQDSSSVPLPTFLVAGGSLAFGTLLCIAIVLRFKKTWKLRALKEGKTSMHPPYSLGQLVPERPRPTPVLVPLISPPVSPSSLGSDNTSSHNRPDARDPRSPYDISNTDYFFPR

Power (discrimination power) (IL-13Ra1; ID 4, output Proliferation, n 9, ns): 0.394
Power (discrimination power) (IL-13Ra1; ID 5, output CD86): 0.442
B5: IL-13Rα2 (protein, UniProt Q14627 27-380, looked up)
Interleukin-13 receptor …: DTEIKVNPPQDFEIVDPGYLGYLYLQWQPPLSLDHFKECTVEYELKYRNIGSETWKTIITKNLHYKDGFDLNKGIEAKIHTLLPWQCTNGSEVQSSWAETTYWISPQGIPETKVQDMDCVYYNWQYLLCSWKPGIGVLLDTNYNLFYWYEGLDHALQCVDYIKADGQNIGCRFPYLEASDYKDFYICVNGSSENKPIRSSYFTFQLQNIVKPLPPVYLTFTRESSCEIKLKWSIPLGPIPARCFDYEIEIREDDTTLVTATVENETYTLKTTNETRQLCFVVRSKVNIYCSDDGIWSEWSDKQCWEGEDLSKKTLLRFWLPFGFILILVIFVTGLLLRKPNTYPKMIPEFFCDT

Continued, molecule first:

Molecule: ErB2
Power (discrimination power) (ErbB2; ID 26, output CD107): 1.058
Power (discrimination power) (ErbB2; ID 27, output Proliferation, ns): 0.6409

Molecule: IFNAR1/IFNAR2
Power (discrimination power) (IFNAR1 and IFNAR2; ID 7, output antiviral): 0.7137
Power (discrimination power) (IFNAR1 and IFNAR2; ID 8, output antiproliferation): 1.329

Molecule: M3 muscarinic receptor: M3 muscarinic receptor, set of agonists
Power (discrimination power) (M3 muscarinic receptor; ID 19, output Calcium, ns): 0.7717
Power (discrimination power) (M3 muscarinic receptor; ID 20, output GTPyS Binding): 0.5478

Molecule: c-Kit: receptor tyrosine kinase activated by SCF
Power (discrimination power) (c-Kit; ID 15, output pERK): 0.834
Power (discrimination power) (c-Kit; ID 16, output pAKT): 0.882

B2: CXC chemokine receptor 3: CXCR3 with chemokine ligands (protein, UniProt P49682 1-368, looked up)
C-X-C chemokine receptor type …: MVLEVSDHQVLNDAEVAALLENFSSSYDYGENESDSCCTSPPCPQDFSLNFDRAFLPALYSLLFLLGLLGNGAVAAVLLSRRTALSSTDTFLLHLAVADTLLVLTLPLWAVDAAVQWVFGSGLCKVAGALFNINFYAGALLLACISFDRYLNIVHATQLYRRGPPARVTLTCLAVWGLCLLFALPDFIFLSAHHDERLNATHCQYNFPQVGRTALRVLQLVAGFLLPLLVMAYCYAHILAVLLVSRGQRRLRAMRLVVVVVVAFALCWTPYHLVVLVDILMDLGALARNCGRESRVDVAKSVTSGLGYMHCCLNPLLYAFVGVKFRERMWMLLLRLGCPNQRGLQRQPSSSRRDSSWSETSEASYSGL
Power (discrimination power) (CXC chemokine receptor 3; ID 22, output Calcium mobilization, n 3): 0.7346
Power (discrimination power) (CXC chemokine receptor 3; ID 23, output GTP gamma S Binding, n 3): 1.056
Power (discrimination power) (CXC chemokine receptor 3; ID 24, output Migrated Cells, n 2, ns, Perfect line): 0.5609

— PMC8219380, “The discriminatory power of the T cell receptor” (eLife, 2021)
